According to US20200024322A1 (Eli Lilly, published 2020):

T1: human gastric inhibitory peptide receptor (GIPR) (human, UniProt P48546 22-466)
T1 sequence (looked up): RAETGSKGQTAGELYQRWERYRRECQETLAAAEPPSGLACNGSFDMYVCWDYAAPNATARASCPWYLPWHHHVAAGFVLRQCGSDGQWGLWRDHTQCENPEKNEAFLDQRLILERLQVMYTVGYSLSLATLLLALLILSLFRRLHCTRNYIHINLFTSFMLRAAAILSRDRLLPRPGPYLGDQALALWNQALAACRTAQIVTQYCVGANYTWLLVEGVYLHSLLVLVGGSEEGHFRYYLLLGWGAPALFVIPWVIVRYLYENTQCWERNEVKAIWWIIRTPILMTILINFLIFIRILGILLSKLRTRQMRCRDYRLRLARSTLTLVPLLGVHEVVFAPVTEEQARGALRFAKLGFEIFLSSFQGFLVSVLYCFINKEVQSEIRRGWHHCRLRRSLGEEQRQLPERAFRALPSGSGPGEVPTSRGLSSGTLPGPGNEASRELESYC

T2: human GIP receptor (human, UniProt P48546 22-466)
T2 construct: whole, on cells; also called hGIPR; hGIP-R
T2 sequence (looked up): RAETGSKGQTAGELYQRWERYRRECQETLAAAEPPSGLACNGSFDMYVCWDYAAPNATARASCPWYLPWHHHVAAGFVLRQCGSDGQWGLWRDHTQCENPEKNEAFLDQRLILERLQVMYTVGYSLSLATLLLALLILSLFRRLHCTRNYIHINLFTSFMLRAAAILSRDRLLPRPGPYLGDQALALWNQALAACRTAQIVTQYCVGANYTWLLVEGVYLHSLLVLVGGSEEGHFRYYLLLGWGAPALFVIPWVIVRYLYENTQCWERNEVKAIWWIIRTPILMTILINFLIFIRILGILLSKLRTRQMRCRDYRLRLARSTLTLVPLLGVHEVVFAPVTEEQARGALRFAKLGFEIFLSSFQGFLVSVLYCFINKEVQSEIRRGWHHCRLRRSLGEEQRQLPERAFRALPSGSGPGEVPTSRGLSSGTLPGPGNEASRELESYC


Columns and labels:
[1] = target: T1, human gastric inhibitory peptide …; assay: cell-based or functional assay
[2] = target: human GLP-1 receptor (GLP-1R) (human, UniProt P43220 24-463); assay: cell-based or functional assay
human glucagon receptor = target: T3, human glucagon receptor (human, UniProt P47871 26-477); assay: [125I]-Gcg competition SPA, hGcgR membranes
T3 construct: whole, on cells; also called hGcgR; GcgR

human GLP-1 receptor = target: T4, human GLP-1 receptor (human, UniProt P43220 24-463); assay: [125I]-GLP-1 competition SPA, hGLP-1R membranes
T4 construct: whole, on cells; also called hGLP-1R; hGLP1R
Method in brief: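 Kᵢ values are geometric means (SEM) over replicates run on separate days, derived from IC₅₀ of four-parameter curve fits. Buffer: HEPES 25 mM pH 7.4 with CaCl₂ 2.5 mM, MgCl₂ 1 mM, bacitracin 0.1%, TWEEN-20 0.003%, EDTA-free protease inhibitors.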

human GIP receptor = target: T2, human GIP receptor; assay: [125I]-GIP competition SPA, hGIPR membranes

T3 sequence (P47871 26-477): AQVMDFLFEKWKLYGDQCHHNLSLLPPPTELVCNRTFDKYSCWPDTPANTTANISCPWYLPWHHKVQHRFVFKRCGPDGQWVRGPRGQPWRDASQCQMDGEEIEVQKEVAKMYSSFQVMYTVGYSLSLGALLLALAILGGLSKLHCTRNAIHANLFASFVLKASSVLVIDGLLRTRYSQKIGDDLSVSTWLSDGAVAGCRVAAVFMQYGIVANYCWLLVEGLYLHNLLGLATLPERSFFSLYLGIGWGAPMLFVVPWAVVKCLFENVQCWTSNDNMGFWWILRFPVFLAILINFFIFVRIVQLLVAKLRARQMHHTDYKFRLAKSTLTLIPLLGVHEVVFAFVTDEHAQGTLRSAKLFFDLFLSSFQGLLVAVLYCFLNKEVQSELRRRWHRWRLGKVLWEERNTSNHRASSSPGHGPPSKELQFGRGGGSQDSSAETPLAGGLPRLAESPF

Row | Binder | hGIPR cAMP EC50 ratio [1] | hGLP1R cAMP EC50 ratio [2] | Ki (human glucagon receptor) | Ki (human GLP-1 receptor) | Ki (human GIP receptor)
1 | XXEGTFTSDYSIXLDXKAQXEFIEYLIAGGPSSG (D-Tyr1; Aib2; αMeL13; Orn16; K17 conjugated to (2-[2-(2-Amino-ethoxy)-ethoxy]-acetyl)2-(c-Glu)-CO-(CH2)18-CO2H ('c-Glu' as printed, presumably γ-Glu); Aib20; C-terminal amide (NH2)) | 0.704 | 0.172 |  |  | 
2 | YXEGTFTSDYSIXLDKKAQXEFIEXLIAGGPSSGAPPPS (Aib2; αMeL13; K17 conjugated to (2-[2-(2-Amino-ethoxy)-ethoxy]-acetyl)2-(γ-Glu)-CO-(CH2)18-CO2H; Aib20; αMeY25; C-terminal amide (NH2)) | 5.85 | 0.386 |  |  | 
3 | YXEGTFTSDYSIXLDKKAQXEFIEXLIAGGPSSGAPPPS (Aib2; αMeL13; K17((2-[2-(2-Amino-ethoxy)-ethoxy]-acetyl)2-(γ-Glu)-CO-(CH2)18-CO2H); Aib20; αMeY25; C-terminal NH2) [Example 367] |  |  | 777 nM | 0.809 nM | 0.0282 nM
4 | XXEGTFTSDYSIXLDKKAQXEFIEXLIAGGPSSGAPPPS (D-Tyr1; Aib2; αMeL13; K17 conjugated to (2-[2-(2-Amino-ethoxy)-ethoxy]-acetyl)2-(γ-Glu)-CO-(CH2)16-CO2H; Aib20; αMeY25; C-terminal amide (NH2)) | 1.76 | 0.169 |  |  | 
5 | XXEGTFTSDYSIXLDKKAQXEFIEXLIAGGPSSGAPPPS (D-Tyr1; Aib2; αMeL13; K17 conjugated to (2-[2-(2-Amino-ethoxy)-ethoxy]-acetyl)-(γ-Glu)-CO-(CH2)18-CO2H; Aib20; αMeY25; C-terminal amide (NH2)) | 0.68 | 0.0741 |  |  | 
6 | XXEGTFTSDYSIXLDXKAQXAFVEYLIEGGPSSGAPPPS (D-Tyr1; Aib2; αMeL13; Orn16; K17 conjugated to (2-[2-(2-Amino-ethoxy)-ethoxy]-acetyl)2-(γ-Glu)-CO-(CH2)18-CO2H; Aib20; C-terminal amide (NH2)) | 0.53 | 0.171 |  |  | 
7 | XXEGTFTSDYSIXLDXKAQXEFIEYLIAGGPSSGAPPPS (D-Tyr1; Aib2; αMeL13; Orn16; K17 conjugated to (2-[2-(2-Amino-ethoxy)-ethoxy]-acetyl)-(γ-Glu)-CO-(CH2)18-CO2H; Aib20; C-terminal amide (NH2)) | 0.393 | 0.206 |  |  | 
8 | XXEGTXTSDYSIXLDKKAQXAFIEYLIEGGPSSGAPPPS (D-Tyr1; Aib2; αMeF6; αMeL13; K17((2-[2-(2-Amino-ethoxy)-ethoxy]-acetyl)2-(γ-Glu)-CO-(CH2)18-CO2H); Aib20; C-terminal NH2) [Example 335] |  |  | 27.1 nM | 2.54 nM | 0.0444 nM
9 | XXEGTFTSDYSIXLDXKAQXDFIEYLIAGGPSSGAPPPS (D-Tyr1; Aib2; αMeL13; Orn16; K17 conjugated to (2-[2-(2-Amino-ethoxy)-ethoxy]-acetyl)2-(γ-Glu)-CO-(CH2)18-CO2H; Aib20; C-terminal amide (NH2)) | 0.499 | 0.319 |  |  | 
10 | XXEGTFTSDYSIXLDXKAQXAFVEYLIAGGPSSGAPPPS (D-Tyr1; Aib2; αMeL13; Orn16; K17((2-[2-(2-Amino-ethoxy)-ethoxy]-acetyl)2-(γ-Glu)-CO-(CH2)18-CO2H); Aib20; C-terminal NH2) [Example 358] |  |  | 915 nM | 1.37 nM | 0.0636 nM
11 | XXEGTFTSDYSIXLDXKAQXEFIEXLIEGGPSSGAPPPS (D-Tyr1; Aib2; αMeL13; Orn16; K17 conjugated to (2-[2-(2-Amino-ethoxy)-ethoxy]-acetyl)2-(γ-Glu)-CO-(CH2)18-CO2H; Aib20; αMeY25; C-terminal amide (NH2)) | 0.374 | 0.115 |  |  | 
12 | XXEGTFTSDYSIXLDKKAQXAFIEXLIAGGPSSGAPPPS (D-Tyr1; Aib2; αMeL13; K17 conjugated to (2-[2-(2-Amino-ethoxy)-ethoxy]-acetyl)-(γ-Glu)-CO-(CH2)18-CO2H; Aib20; αMeY25; C-terminal amide (NH2)) | 0.287 | 0.0621 |  |  | 
13 | XXEGTFTSDYSIXLDKKAQXEFIEXLIEGGPSSGAPPPS (D-Tyr1; Aib2; αMeL13; K17 conjugated to (2-[2-(2-Amino-ethoxy)-ethoxy]-acetyl)2-(γ-Glu)-CO-(CH2)18-CO2H; Aib20; αMeY25; C-terminal amide (NH2)) | 0.672 | 0.114 |  |  | 
14 | XXEGTFTSDYSIXLDXKAQXEFIEXLIAGGPSSGAPPPS (D-Tyr1; Aib2; αMeL13; Orn16; K17 conjugated to (2-[2-(2-Amino-ethoxy)-ethoxy]-acetyl)2-(γ-Glu)-CO-(CH2)16-CO2H; Aib20; αMeY25; C-terminal amide (NH2)) | 1.13 | 0.178 |  |  | 
15 | XXEGTFTSDYSIXLDXKAQXAFVXYLIAGGPSSGAPPPS (D-Tyr1; Aib2; αMeL13; Orn16; K17 conjugated to (2-[2-(2-Amino-ethoxy)-ethoxy]-acetyl)2-(γ-Glu)-CO-(CH2)18-CO2H; Aib20; D-Glu24; C-terminal amide (NH2)) | 0.347 | 0.0805 |  |  | 
